Results: patent US20100286021A1, “Methods of Modulating Prokineticin 2 for Treatment of Stress Response and Anxiety-Related Disorders” (priority 2007, published 2010)

Experiments:
[1] = system: PK2 mRNA in the PVN; conditions: compared with induction by 24 hours of food deprivation
Description: In situ hybridization was performed for detection. Animals were killed and brains were quickly dissected and stored at −80° C. until use. In situ hybridization was performed on coronal sections as described previously. The ^35S-hybridized slices were then coated with Kodak NTB2 autoradiographic emulsion and exposed for 1 month at 4° C.

[2] = Hot-plate pain test, morphine-induced analgesia; type: in vivo; conditions: subcutaneous injection, various concentrations, 55° C. hot plate, WT vs PK2^-/- mice
Description: FIGS. 6A-6C show impaired stress-induced analgesia in PK2^-/- mice. […] (a and b) The hot-plate latency was monitored before or after stress. Animals were stressed by 3-min of cold-water swimming (a) or 5-min of tail suspension (b). Wild-type (closed circles); PK2^-/- (open circles). The black blocks indicate the stressing period. (c) The hot-plate latency was also monitored after subcutaneous injection of various concentrations of morphine. There was no genotypic difference in morphine-induced analgesia; n=12-15 mice/genotype *, P<0.05; unpaired t test. Error bars, SEM.
Pain perception and stress-induced analgesia was measured. All the pain tests were carried out on a hot plate with a 55° C. surface, on which no basal difference was observed between WT and PK2^-/- mice. The cut-off time was set to 1 min to prevent tissue damage. Stress was induced by forced swimming for 3 min in 10° C. water, or suspending the tail for 5 minutes.

[3] = Forced swimming test (depression-like behavior) after ICV infusion; type: in vivo; conditions: mice, 4 μg ICV, 1 hour after infusion, vs CSF
Description: (§1) (a) Artificial cerebrospinal fluid (CSF) or 5 μg of PK2 was infused ICV to rats at ZT 14. Slow wave sleep (SWS), rapid eye movement sleep (REM) and active wake (AW) during the following 4 hours (ZT 14-18) were averaged and presented as mean±SEM; n=6 rats/group. (b) CSF or 5 μg of PK2 was infused ICV to rats at ZT 2 (day) or ZT 14 (night), the food intake in the following 24 hours were measured periodically and presented as mean±SEM. n=6-10 rats/group. (c) CSF or 4 μg of PK2 was infused ICV into mice. Anxiety-like behavior was monitored with a light-dark box assay 1 hour after infusion. n=12 mice/group. (d) CSF or 4 μg of PK2 was infused ICV into mice. Immobility in a forced swimming test was measured 1 hour after infusion; n=12 mice/group. *, P<0.05; unpaired t test. Error bars, SEM.
The Porsolt forced swim test was utilized. Animals were placed individually in cylinders (height 25 cm, diameter 11 cm) filled with 8-cm-deep water (temperature 22±1° C.) for 6 minutes The total period of immobility during the 6 minutes was recorded. Immobility was defined as no volitional body or limb movement.
(§2) Intracerebroventricular infusion was utilized. Rats with cannula fit to the lateral ventricle were purchased from Charles River laboratory. […]

[4] = Light-dark box assay (anxiety-like behavior) after ICV infusion; type: in vivo; conditions: mice, 4 μg ICV, 1 hour after infusion, vs CSF
Description: as §1
The light-dark box was divided into a lit compartment (30×20×25 cm, illumination 400 lux) and a dark compartment (15×20×25 cm) connected by a 4-cm tunnel. The experiment was started by placing the animal in the dark compartment.
Numbers of transitions, total time spent in the lit compartment, and latency until the first exit were recorded on video and quantified during 10 minutes.
as §2

[5] = Food intake after ICV infusion; type: in vivo; conditions: rats, 5 μg ICV at ZT 2 (day) or ZT 14 (night), following 24 hours, vs CSF
Description: as §1
Food intake was measured. Mice food intake measurement was performed using a Comprehensive Lab Animal Monitoring System (CLAMS, Columbus Instruments, Columbus, Ohio). Feeding data were collected every 10 min for each mouse over a period of 5 days. The daily food intake was the total food consumed during 24 hours. For rats, the food pellets in the food bin were measured manually every 4-8 hours after drug infusion. The food intake was the total amount of food loaded subtracted by the amount of food left.
Intracerebroventricular infusion was utilized. […]

[6] = Sleep/wake recording after ICV infusion; type: in vivo; conditions: rats, 5 μg ICV at ZT 14, following 4 hours (ZT 14-18), vs CSF
Description: as §1
Recording and analysis of sleep/wake was performed. The sleep/wake recording in rats was carried out as described in reference. Digital recording was visually scored as slow wave sleep (SWS), rapid eye movement sleep (REM) and active wake (AW). For the mice, electroencephalogram (EEG) and electromyogram (EMG) signals were recorded using a lightweight implant and cabling procedure as described. […] The signals were digitally filtered (EEG, 0.3-30 Hz; EMG, 2-100 Hz) and semi-automatically scored in 4 second epochs as wake, NREM, or REM sleep using SleepSign sleep scoring software (Kissei Comtec America, California). […]

For `O=CC[C@@H](O)[C@H](O)[C@H](O)CO` [2-DG, 2-Dexoyl-D-glucose], the “induction of PK2 mRNA in the PVN” value [1] was “induction was mimicked”.

For `CN1CC[C@]23c4c5ccc(O)c4O[C@H]2[C@@H](O)C=C[C@H]3[C@H]1C5` [morphine], the “morphine-induced analgesia (hot-plate latency)” value [2] was “indistinguishable between WT and PK2^-/- mice”.

B1: PK2: regulatory peptide that activates two closely related G protein-coupled receptors (PKR1, PKR2) (protein, UniProt Q9HC23 28-129, looked up)
Prokineticin-2: AVITGACDKDSQCGGGMCCAVSIWVKSIRICTPMGKLGDSCHPLTRKNNFGNGRQERRKRKRSKRKKEVPFFGRRMHHTCPCLPGLACLRTSFNRFICLAQK
For B1, the “time spent on immobility” value [3] was “significantly increased the time spent on immobility”, the “general activity (total entries)” value [4] was “without significant effect on general activity” and the “time spent in the lit compartment” value [4] was “significantly less time spent in the lit compartment”. For the same molecule, the food intake [5] was “circadian phase-independent suppression of food intake” and the arousal level [6] was “significantly increased arousal level”.
